Measurements reported in patent publication US20260356969 (published 2026).
Like-named read-outs stand apart in the source and are kept apart here.

Assays:
[1] = molecular target: T1, CD26 (human, UniProt P27487); assay: BLI
[2] = molecular target: 21G583 CD26 fragment 29-300 (human); assay: FACS
[3] = molecular target: 23G645 CD26 fragment 498-766 (human); assay: FACS
[4] = molecular target: 21G584 CD26 fragment 29-237 (human); assay: FACS
[5] = molecular target: 21G585 CD26 fragment 29-182 (human); assay: FACS
[6] = molecular target: T1, CD26; assay: BLI; remark: listed apart in the source

T1 sequence (P27487 29-766): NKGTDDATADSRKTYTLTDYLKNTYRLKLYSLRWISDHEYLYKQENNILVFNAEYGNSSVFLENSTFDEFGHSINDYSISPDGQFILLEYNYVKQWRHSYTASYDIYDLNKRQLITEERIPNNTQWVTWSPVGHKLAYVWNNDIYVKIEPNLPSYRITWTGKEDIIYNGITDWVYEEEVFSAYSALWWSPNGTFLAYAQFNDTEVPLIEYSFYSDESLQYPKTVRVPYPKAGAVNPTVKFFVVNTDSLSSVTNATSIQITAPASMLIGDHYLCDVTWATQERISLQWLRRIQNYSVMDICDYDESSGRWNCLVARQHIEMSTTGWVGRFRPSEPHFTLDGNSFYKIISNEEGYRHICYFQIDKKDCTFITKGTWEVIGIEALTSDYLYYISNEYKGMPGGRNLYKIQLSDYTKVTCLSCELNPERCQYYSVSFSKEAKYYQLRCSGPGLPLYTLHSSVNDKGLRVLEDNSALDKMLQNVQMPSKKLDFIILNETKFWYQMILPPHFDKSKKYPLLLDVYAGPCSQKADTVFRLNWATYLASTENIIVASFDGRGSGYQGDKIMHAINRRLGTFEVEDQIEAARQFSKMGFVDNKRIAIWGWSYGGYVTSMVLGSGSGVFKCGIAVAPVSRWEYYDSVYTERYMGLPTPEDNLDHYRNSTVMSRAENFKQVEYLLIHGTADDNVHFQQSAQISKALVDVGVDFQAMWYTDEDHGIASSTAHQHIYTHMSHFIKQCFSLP
21G583 CD26 fragment 29-300 (human), sequence (chain, as listed by the source): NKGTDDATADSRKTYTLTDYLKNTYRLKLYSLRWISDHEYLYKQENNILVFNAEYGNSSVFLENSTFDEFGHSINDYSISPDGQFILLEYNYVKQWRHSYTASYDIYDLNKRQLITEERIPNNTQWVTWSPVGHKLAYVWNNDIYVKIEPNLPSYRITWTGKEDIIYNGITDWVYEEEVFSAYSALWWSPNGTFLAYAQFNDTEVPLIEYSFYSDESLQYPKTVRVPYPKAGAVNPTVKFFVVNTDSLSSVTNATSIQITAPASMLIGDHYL
21G585 CD26 fragment 29-182 (human), sequence (chain, as listed by the source): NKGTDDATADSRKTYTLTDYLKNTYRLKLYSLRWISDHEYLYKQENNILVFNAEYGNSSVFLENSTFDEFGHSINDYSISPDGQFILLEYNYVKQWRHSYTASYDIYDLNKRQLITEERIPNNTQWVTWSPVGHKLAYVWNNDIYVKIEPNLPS
21G584 CD26 fragment 29-237 (human), sequence (chain, as listed by the source): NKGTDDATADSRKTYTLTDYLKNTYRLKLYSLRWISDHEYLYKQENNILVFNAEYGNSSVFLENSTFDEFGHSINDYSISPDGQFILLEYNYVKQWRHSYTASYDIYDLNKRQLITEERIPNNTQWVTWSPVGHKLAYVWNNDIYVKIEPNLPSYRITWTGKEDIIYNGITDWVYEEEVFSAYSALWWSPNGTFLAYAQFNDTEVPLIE
23G645 CD26 fragment 498-766 (human), sequence (chain, as listed by the source): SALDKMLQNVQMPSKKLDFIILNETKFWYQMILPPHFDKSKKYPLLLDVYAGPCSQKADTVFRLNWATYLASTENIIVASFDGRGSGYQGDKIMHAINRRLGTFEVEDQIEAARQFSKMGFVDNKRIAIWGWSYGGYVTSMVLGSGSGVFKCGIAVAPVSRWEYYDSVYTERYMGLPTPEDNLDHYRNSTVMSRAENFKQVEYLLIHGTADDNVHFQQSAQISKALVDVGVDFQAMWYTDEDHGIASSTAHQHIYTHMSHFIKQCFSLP

Row | Kd [1] [nM] | further results | Binder
1 | < 0.001 | – | 19G292 (CD26 arm) (antibody, V domains shown) VH: QVQLLQSGAEVVKPGASVKISCKASGFNIKDTYIYWVKQPTGQGLEWIGRIEPMNGNTKYDPKFQGRFTMTANTSINTAYLQLSSLTSEDTAVYYCSRGGWLLLYVMDYWGQGTTVTVSS VL: DIVMTQSASSLPVTPGESVSISCRSDKSLLHSNGNTYLYWFLQRPGQSPQVLIYRMSNLASGVPDRFSGSGSGTEFTLTISRVEAEDVGVYYCFQQLEYPYTFGPGTKLEIK
2 | – | binding result [2]: no binding; binding result [3]: no binding; binding result [4]: no binding; binding result [5]: no binding | 21G428-429 (antibody, V domains shown) VH: EVQLVQSGAELVKPGASVKLSCAASGFNIKDTYIYWVRQAPGQGLEWVGRIEPMNGNTKYDPKFQGRFTMTANTSKNTAYLQLSSLRSEDTAVYYCSRGGWLLLYVMDYWGQGTLVTVSS VL: DIVMTQSPSSLSVTPGERVSISCRSDKSLLHSNGNTYLYWFLQKPGQSPQVLIYRMSNLASGVPDRFSGSGSGTDFTLTISRVEAEDVGVYYCFQQLEYPYTFGQGTKLEIKR
3 | < 0.001 | – | 19G293 (CD26 arm) (antibody, V domains shown) VH: QVQLVQSGAELVKPGASVKLSCKASGFNIKDTYIYWVRQAPGQGLEWIGRIEPMNGNTKYDPKFQGRVTMTANTSINTAYLELSSLRSEDTAVYYCSRGGWLLLYVMDYWGQGTLVTVSS VL: DIVMTQSPLSLSVTPGEPASISCRSDKSLLHSNGNTYLYWFLQKPGQSPQVLIYRMSNLASGVPDRFSGSGSGTDFTLKISRVEAEDVGVYYCFQQLEYPYTFGQGTKLEIK
4 | 0.352 | – | 21G587 (CD26 arm) (antibody, V domains shown) VH: EVQLVQSGAELVKPGASVKLSCAASGFNIKDTYIYWVRQAPGQGLEWVGRIEPMNGNTKYDPKFQGRFTMTANTSKNTAYLQLSSLRSEDTAVYYCSRGGWLLLYVMDYWGQGTLVTVSS VL: DIVMTQSPSSLSVTPGERVSISCRSDKSLLHSNGNTYLYWFLQKPGQSPQVLIYRMSNLASGVPDRFSGSGSGTDFTLTISRVEAEDVGVYYCFQQLEYPYTFGQGTKLEIK
5 | 0.914 | – | 19G294 (CD26 arm) (antibody, V domains shown) VH: EVQLVQSGAELVKPGASVKLSCAASGFNIKDTYIYWVRQAPGQGLEWVGRIEPMNGNTKYDPKFQGRFTMTANTSKNTAYLQLSSLRSEDTAVYYCSRGGWLLLYVMDYWGQGTLVTVSS VL: DIVMTQSPSSLSVTPGERVSISCRSDKSLLHSNGNTYLYWFLQKPGQSPQVLIYRMSNLASGVPDRFSGSGSGTDFTLTISRVEAEDVGVYYCFQQLEYPYTFGQGTKLEIK
6 | 1.18 | – | 17G29 (CD26 arm, YS110) (antibody, V domains shown) VH: EVQLVESGAGVKQPGGTLRLTCTASGFSLTTYGVHWVRQAPGKGLEWVGVIWGDGRTDYDAAFMSRVTISKDTSKSTVYLQMNSLRAEDTAVYYCMRNRHDWFDYWGQGTTVTVSS VL: DILLTQSPSSLSATPGERATITCRASQGIRNNLNWYQQKPGQAPRLLIYYSSNLQSGVPSRFSGSGSGTDFTLTISRLQPEDVAAYYCQQSIKLPFTFGSGTKVEIK
7 | – | Kd [6]: 39.3 nM | 17G105 (CD26 arm) (antibody) DIVLTQSPASLAVSLGQRATISCRASESVEYYGTSLMQWYQQKPGQPPKLLIYTASNVESGVPVRFSGSGSGTDFSLNIHPVEEDDIAMYFCQQSRKVPYTFGGGTKLEIKGGGGSGGGGSGGGGSQVQLQQSGPELMKPGASVKISCKATGYSFSGFWIEWVKQRPGHGLEWIGEILPGSGASNYHENFKGRATITADTSANTAYMQLRSLTSEDSAVYYCARERYYGSKYFDVWGAGTTVTVSS
8 | 4.4 | – | 19G297 (CD26 arm) (antibody, V domains shown) VH: EVQLQESGPGLVKPSGTLSLTCAVSGDSITSGYWHWIRQAPGKGLEWVGYINYSGYTYYNPSLKSRFTISRDTSKNQYYLQLNSVTAEDTAVYYCTSERNWGAFAYWGQGTLVTVSS VL: ENVLTQSPASLSASPGERVTITCRASSSVISTYLHWYQQKPGQAPKLWIYSTSNLASGVPARFSGSGSGTDYTLTISSVEPEDFATYYCQQFSGYPYTFGQGTKLEIK
9 | 14.8 | – | 19G296 (CD26 arm) (antibody, V domains shown) VH: QVQLQESGPGLVKPSETLSLTCTVSGDSITSGYWHWIRQPPGKGLEWIGYINYSGYTYYNPSLKSRFTISRDTSKNQYYLQLNSVTAEDTAVYYCTSERNWGAFAYWGQGTLVTVSS VL: ENVLTQSPATLSASPGERATLSCRASSSVISTYLHWYQQKPGQAPKLWIYSTSNLASGVPARFSGSGSGTDYTLTISSVEPEDFAVYYCQQFSGYPYTFGQGTKLEIK
10 | – | Kd [6]: 17.3 nM | 17G61 (CD26 arm) (antibody) DIVMTQAAPSVSVTPGESVSISCRSDKSLLHSNGNTYLYWFLQRPGQSPQVLIYRMSNLASGVPDRFSGSGSGTGFTLRVSRVEAEDVGVYYCFQQLEYPYTFGGGTKLEIKGGGGSGGGGSGGGGSEVQLQQSGAELVKPGASVKLSCTASGFNIKDTYIYWVKQRPGQGLEWIGRIEPMNGNTKYDPKFQGKATMTANTSSNTAYLHLSSLASEDTAVYFCSRGGWLLLYVMDYWGQGTSVTVSS
